Experimental data from patent US7083962B2, “Carbonyl reductases, polynucleotides comprising DNA encoding the same, methods for producing the same, and methods for producing optically active alcohol utilizing the same” (Daicel Chemical Industries Ltd., priority 2004, dated 2006).

Tests used:
carbonyl reductase [1] = test: NADH-dependent 3,4-dimethoxyphenylacetone-reducing activity; type: biochemical, Torulaspora delbrueckii; conditions: substrate 5 mM, coenzyme NADH, pH 6.5, 30° C.
Experimental: (§1) The enzyme obtained in Example 1 was reacted with various ketones, ketoesters, and soon. The activities of the reduction reactions were expressed as relative activities, where the reduction of 3,4-dimethoxyphenylacetone was regarded as 100 (Table 2) (substrate specificity of carbonyl reductase). The activity of dehydrogenating 1-(3,4-dimethoxyphenyl)-2-propanol was measured as follows: A reaction was performed at 30° C. in a reaction solution comprising 50 mM Tris-HCl buffer (pH 8.5), 2.5 mM NADP^+, 5 mM 1-(3,4-dimethoxyphenyl)-2-propanol, and the enzyme. An increase in absorbance at 340 nm, accompanying NADPH production, was measured. 1 U was defined as the amount of enzyme catalyzing the production of 1 μmol NADPH per minute. In addition, the activity of reducing NADH-dependent 3,4-dimethoxyphenylacetone was measured as follows: A reaction was performed at 30° C. in a reaction solution comprising 50 mM potassium phosphate buffer (pH 6.5), 0.2 mM NADH, 5 mM 3,4-dimethoxyphenylacetone, and the enzyme, and decrease in absorbance at 340 nm, accompanying decrease in NADH, was measured. 1 U was defined as the amount of enzyme catalyzing a decrease of 1 μmol NADH per minute.

carbonyl reductase [2] = test: Substrate specificity: NADPH-dependent reduction by the carbonyl reductase obtained in Example 1; type: biochemical, Torulaspora delbrueckii; conditions: substrate 5 mM, coenzyme NADPH; reduction of 3,4-dimethoxyphenylacetone regarded as 100
Experimental: (§2) A reaction solution comprising 50 mM potassium phosphate buffer (pH 6.5), 0.2 mM NADPH, 5 mM 3,4-dimethoxyphenylacetone, and an enzyme is reacted at 30° C. Any decrease in absorbance at 340 nm accompanying a decrease in NADPH is measured. 1U is defined as the amount of enzyme which catalyzes a 1 μmol decrease of NADPH in one minute.
as §1

[3] = Enzymatic synthesis of (S)-1-(3,4-dimethoxyphenyl)-2-propanol: optical purity and reaction yield; type: biochemical; conditions: 0.25 U carbonyl reductase, 50 mM 3,4-dimethoxyphenylacetone, overnight, 25° C., pH 6.5
Experimental: A reaction was performed overnight at 25° C. in 1 mL of a reaction solution comprising 200 mM potassium phosphate buffer (pH 6.5), 1 mM NADP^+, 2 U glucose dehydroganase (Wako Pure Chemical Industries, Ltd.), 250 mM glucose, 0.25 U carbonyl reductase, and 50 mM 3,4-dimethoxyphenylacetone. The optical purity of the produced (S)-1-(3,4-dimethoxyphenyl)-2-propanol was measured as follows: One mL of ethyl acetate was added to 0.5 mL of the reaction solution to extract (S)-1-(3,4-dimethoxyphenyl)-2-propanol, and the extraction solvent was desolvated. 0.5 mL of a dissolving solution (n-hexane: isopropanol=4:1) was then added to dissolve the extract, which was then analyzed by liquid chromatography using an optical resolution column. CHIRALCEL OF (4.6 mm×25 cm; Daicel Chemical Industries, Ltd.) was used as the optical resolution column. Chromatography was performed with a wavelength of 220 nm, a flow rate of 1.0 mL/min, and at 40° C. using an eluting solution of n-hexane: isopropanol=4:1.
In addition, the (S)-1-(3,4-dimethoxyphenyl)-2-propanol thus-produced was quantified using gas chromatography, and a yield relative to the raw starting material, 3,4-dimethoxyphenylacetone, was obtained. Specifically, the analysis was performed at a column temperature of 210° C., using Thermon 3000 (10%)-Chromosorb W (AW-DMCS, Mesh 60–80; 3.2 mm×210 cm) with a hydrogen flame ionization detector (FID). The resulting reaction yield was about 95%.
To prepare crude enzyme solution for enzyme reaction, the crude enzyme solution prepared in Example 18 was concentrated ten-folds using a UF membrane. This solution was reacted overnight at 25° C. in 1 mL of a reaction solution comprising 200 mM potassium phosphate buffer (pH 6.5), 1 mM NADP^+, 2 U glucose dehydrogenase (Wako Pure Chemical Industries, Ltd.), 250 mM glucose, 0.2 U homolog enzyme, and 50 mM 3,4-dimethoxyphenylacetone. Optical purity was measured and the produced (S)-1-(3,4-dimethoxyphenyl)-2-propanol was quantified as in Example 6. As a result, YGL157w (pSE-YGP7) produced 93.7% ee (S)-1-(3,4-dimethoxyphenyl)-2-propanol at a yield of 66%, YGL039w (pSE-YGD9) produced 93.6% ee at a yield of 94%, and YDR541c (pSE-YDR1) produced 94.8% ee at a yield of 6%.

[4] = 3,4-dimethoxyphenylacetone-reducing activity of the purified enzyme (specific activity, pH and temperature dependency); type: biochemical, Torulaspora delbrueckii; conditions: 3,4-dimethoxyphenylacetone reduction, NADPH, pH 6.5, 30° C.
Experimental: as §2
The specific activity of the purified enzyme was 196 mU/mg.
By changing the pH using potassium phosphate buffer, sodium acetate buffer, and Britton-Robinson buffer, the 3,4-dimethoxyphenylacetone-reducing activity of the enzyme obtained in Example 1 was investigated. Activity at each pH was expressed as a relative activity, where the maximum activity was regarded as 100 (FIG. 2). Optimal pH (showing 80% or more relative activity) was 5.5 to 6.5.
Of the standard reaction conditions, only the temperature was changed, and the 3,4-dimethoxyphenylacetone-reducing activity of the enzyme obtained in Example 1 was then measured. Activity at each temperature was expressed as a relative activity, where the maximum activity was regarded as 100 (FIG. 3). Optimal temperature (showing 80% or more relative activity) was 50° C. to 55° C.

Molecule | Relative activity (carbonyl reductase [1]) [%] | Relative activity (carbonyl reductase [2]) [%] | Optical purity of the produced (S)-1-(3,4-dimethoxyphenyl)-2-propanol [3] [% ee] | Reaction yield relative to 3,4-dimethoxyphenylacetone [3] | Specific activity of the purified enzyme [4] [mU/mg]
COc1ccc(CC(C)=O)cc1OC [3,4-Dimethoxyphenylacetone] | 0.0 | 100 | – | – | –
carbonyl reductase: NADPH-dependent carbonyl reductase purified from Torulaspora delbrueckii JCM 5921; amino acid sequence SEQ ID NO: 2 (protein, listed as Torulaspora delbrueckii) MSILVSGATGFIALHVVSDLLKQDYKVIGTVRSQEKADKLRKQFGNNPNLSFELVSDIAAPEAFDKVFQKHGKDIKVVLHTASPFTLETTNYEKDLLLPAVNGTKSILESIKKYAADSVERVVITSSYAAVMNVSKEGDGSIVYTEKDWNPATWENCQIDGLNAYCGSKKLAEKAAWDFFEDNKNVVKFKLSMINPTYVFGPQLFDEDVKDKLNTSCELINSIIKNNPQVGYLLENIKGHFVDVRDVAKAHLVAFQKDEAIGQRLLTSNGRFAYQDLVDIINEDFPQLKGKVIVGKPGAGKQLYGTFPDINNTRSKEILGFEFISLHKSVHDTAAQVLKKEGKL | – | – | ≥ 99 | about 95% | 196
